Results on five sequences are retold here after patent US20090053138.

Broadly, the Kd is a measure of binding affinity in units of concentration. A lower Kd goes with higher affinity.

The subject of data set [1] is T1, VEGF (Homo sapiens ?), P15692-4.
T1 sequence: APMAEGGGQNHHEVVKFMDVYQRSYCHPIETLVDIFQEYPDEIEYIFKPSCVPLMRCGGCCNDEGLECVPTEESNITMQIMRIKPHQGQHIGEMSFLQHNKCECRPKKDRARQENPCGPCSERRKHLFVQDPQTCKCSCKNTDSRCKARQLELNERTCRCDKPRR
The experiment in a line: FP filter. The following applies: nitrocellulose dot blot.

Data set [2] concerns the target PDGF-BB (Rattus norvegicus) (UniProt Q05028). Briefly: competition. The following applies: DNA with s1 fU6 fC8 mG9; s2 mG5 mG7 fU10 fC11 mA12; s3 fC5 fC6 fU7 mG8 (f=2'-F, m=2'-OMe); HEG spacers between segments; 3'-inverted dT; equal affinity to ….
In another data set the target is PDGF-AB (Homo sapiens) (UniProt P04085+P01127). Briefly: competition. The conditions noted are these: DNA with s1 fU6 fC8 mG9; s2 mG5 mG7 fU10 fC11 mA12; s3 fC5 fC6 fU7 mG8 (f=2'-F, m=2'-OMe); HEG spacers between segments; 3'-inverted dT; dot blot; p348 prints uM, legend prints pM.
For data set [3], the system named is PDGF-AA (Homo sapiens), P04085-2. Briefly: competition. The following applies: PEG-conjugated ARC513 (PEG size per image, not given); 2'-OMe as ARC513; PEG spacers; figure legend states no binding to PDGF-AA.

Chain of PDGF-BB (Rattus norvegicus) (Q05028 74-182): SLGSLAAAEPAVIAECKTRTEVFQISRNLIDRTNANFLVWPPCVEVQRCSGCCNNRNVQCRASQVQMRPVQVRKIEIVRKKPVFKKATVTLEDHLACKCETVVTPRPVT
Chain of PDGF-AB (Homo sapiens) (P01127 82-190, chain 2 of 2, other chains not shown): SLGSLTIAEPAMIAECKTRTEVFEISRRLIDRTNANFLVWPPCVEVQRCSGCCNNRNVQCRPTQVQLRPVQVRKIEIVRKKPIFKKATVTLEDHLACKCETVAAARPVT

Consider AUGCAGUUUGAGAAGUCGCGCAU [ARC245], for which, in data set [1] (all 2'-OMe), the Kd came to 2 nM. As for “CAGGCTACGAUGCAGUUUGAGAAGUCGCGCAUCGTAGAGCATCAGAAATGATCCTG [TK.131.012.A]”, the Kd in data set [1] (ARC126 part deoxy, ARC245 part 2'-OMe, dGdAdAdA linker) was determined as 10 nM. With “CAGGCTACGUGCAGUUUGAGAAGUCGCGCACGTAGAGCATCAGAAATGATCCTG [TK.131.012.B]”, the Kd in data set [1] (ARC126 part deoxy, ARC245 part 2'-OMe (first mA-mU pair removed), dGdAdAdA linker) is 5 nM.

With CAGGCUACGCGTAGAGCAUCATGATCCUG [ARC126], the values for the dissociation constant (Kd) (in data set [2]; with PDGF-AB (Homo sapiens)) were 0.1 nM and 0.0001 µM, respectively. In data set [3], “CCCAGGCTACGCGTAGAGCAUCATGATCCTGGG [ARC594 (AX102)]” gave a Kd of 2.6 nM.
